Results as given in PMC6056074.

Target: HLA-B*44:05 (human)
Assay: flow cytometry on cells; peptide receptivity of surface HLA-B on TAP-sufficient CEM cells: 100 μM peptide in medium at 26°C for 2h, then 20 μg/ml brefeldin A at 37°C for 2h; W6/32 staining, signal of cells without exogenous HLA-B subtracted; read-out (MFI with peptide - MFI without peptide)/MFI with peptide*100

EEFGRAFSF [… (EF10), B*44:05-restricted epitope] showed a percent of cell surface HLA-B that is peptide receptive of 5%.
